The values below come from patent US8114968 (dated 2012).

Test [1] has as its target M118-F11. The test is described as follows: -; column head prints nM.
Target sequence in this assay (P34960 110-473): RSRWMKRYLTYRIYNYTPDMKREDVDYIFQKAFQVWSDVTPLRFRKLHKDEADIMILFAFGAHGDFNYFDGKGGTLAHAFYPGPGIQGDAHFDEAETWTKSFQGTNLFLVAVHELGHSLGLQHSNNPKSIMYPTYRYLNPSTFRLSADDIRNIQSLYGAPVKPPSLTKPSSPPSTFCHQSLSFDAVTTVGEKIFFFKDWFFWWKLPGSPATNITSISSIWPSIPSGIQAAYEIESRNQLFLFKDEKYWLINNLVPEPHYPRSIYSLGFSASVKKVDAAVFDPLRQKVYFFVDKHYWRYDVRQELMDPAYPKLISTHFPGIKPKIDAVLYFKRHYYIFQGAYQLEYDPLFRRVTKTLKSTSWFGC
For test [2], the target named is M121-E07. The test is described as follows: -; column head prints nM.
Target sequence in this assay (P34960 110-473): as above
Test [3] deals with M088-H10.
The target of test [4] is M109-G11.
Target sequence in this assay (P34960 110-473): as above
Test [5] concerns the target M107-A12.
Target sequence in this assay (P34960 110-473): as above
For test [6], the target named is M118-F11.
Test [7] has as its target M109-G11. The source holds these as a separate data set.
In test [8] the target is M121-E07.
Test [9] addresses M107-A12. The source holds these as a separate data set.
Test [10] addresses T1, murine MMP-12 (UniProt P34960 110-473). The experiment in a line: enzyme inhibition.
For test [11], the target named is T1, murine MMP-12. The test is described as follows: enzyme inhibition; recombinant; peptide substrate.
In test [12] the target is T2, human MMP-12 (UniProt P39900 106-470).
Test [13] concerns the target T1, murine MMP-12.
Test [14] concerns the target T2, human MMP-12. The test is described as follows: enzyme inhibition.
The target in test [15] is T1, murine MMP-12. The test is described as follows: -; column head prints nM.

Changes are numbered by the printed parent chain. Where two headings read alike, the source gives them in different places.

T1 sequence (P34960 110-473): as above
Sequence of M088-H10 (P34960 110-473): as above

B1: Mouse MMP12 (enzyme)
chain: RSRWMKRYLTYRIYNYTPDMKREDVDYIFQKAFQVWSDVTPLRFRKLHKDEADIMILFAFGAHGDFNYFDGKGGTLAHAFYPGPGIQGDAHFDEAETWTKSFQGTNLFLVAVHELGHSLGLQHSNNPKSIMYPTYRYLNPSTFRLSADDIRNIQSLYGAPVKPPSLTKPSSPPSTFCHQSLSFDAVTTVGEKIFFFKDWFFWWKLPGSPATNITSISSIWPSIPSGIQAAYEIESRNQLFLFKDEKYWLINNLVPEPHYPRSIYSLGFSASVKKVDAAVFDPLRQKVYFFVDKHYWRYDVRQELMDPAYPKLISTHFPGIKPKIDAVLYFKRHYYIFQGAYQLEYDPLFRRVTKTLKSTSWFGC
In general, Kd refers to the equilibrium constant for the complex coming apart. High values mean weaker binding, low ones tighter binding. For B1, the Kd in test [1] worked out at 0.727 nM; in [2] it was 0.181 nM; in test [3], 34.4 nM; in test [4], 1 nM; in [5], 0.9 nM.

B2: Human MMP12 (enzyme)
chain: GPVWRKHYITYRINNYTPDMNREDVDYAIRKAFQVWSNVTPLKFSKINTGMADILVVFARGAHGDFHAFDGKGGILAHAFGPGSGIGGDAHFDEDEFWTTHSGGTNLFLTAVHEIGHSLGLGHSSDPKAVMFPTYKYVDINTFRLSADDIRGIQSLYGDPKENQRLPNPDNSEPALCDPNLSFDAVTTVGNKIFFFKDRFFWLKVSERPKTSVNLISSLWPTLPSGIEAAYEIEARNQVFLFKDDKYWLISNLRPEPNYPKSIHSFGFPNFVKKIDAAVFNPRFYRTYFFVDNQYWRYDERRQMMDPGYPKLITKNFQGIGPKIDAVFYSKNKYYYFFQGSNQFEYDFLLQRITKTLKSNSWFGC
On to B2, for which the dissociation constant Kd came to 1.17 nM in test [6], 7.5 nM in test [7], 0.197 nM in [8] and 1.8 nM in [9].

B3: 539B-M0011-H11 Fab (Fab, V domains shown)
VH: EVQLLESGGGLVQPGGSLRLSCAASGFTFSWYNMWWVRQAPGKGLEWVSYIYPSGGNTGYADSVKGRFTISRDNSKNTLYLQMNSLRAEDTAVYYCAVFEYSSSGPQGYWGQGTLVTVSS
VL: QSALTQPPSVSVAPGQTARITCGGNNIGTKSVHWYQQKSGQAPVLVVYDNSDRPSGIPERFSGSNSGNTATLTISRVEAGDEADYYCQVWDNSIDHVVFGGGTKLTVL
The IC50 is the point on the concentration scale where inhibition reaches its midpoint. Turning to B3, the IC50 in [10] came out at 9 nM.

B4: 539B-M11H11 IgG (antibody, V domains shown)
VH: B3 VH
VL: B3 VL
As to B4, in [10], the 50% inhibitory concentration (IC50) is 3 nM.

B5: 539B-M0008-H09 (format not stated) (antibody, V domains shown)
VH: EVQLLESGGGLVQPGGSLRLSCAASGFTFSDYNMHWVRQAPGKGLEWVSYIGPSGGYTHYADSVKGRFTISRDNSKNTLYLQMNSLRAEDTAVYYCAKDIRGAYSSGLFDYWGRGTLVTVSS
VL: DIQMTQSPSSLSASVGDRVTITCRANQSIYTYLNWYQQKPGKAPELLIYAASSLQSGVPSRFSGSGSGTDFTLTISSLQPEDFATYYCQQAGIFGQGTKLEIK
Turning to B5, the half-maximal inhibitory concentration (IC50) in [11] was 3.7 nM. The molecule further registered a Kd in test [12] of 18 nM.

B6: 539B-M0071-D09 (Fab, V domains shown)
VH: B5 VH with D31P, N33W, Y50G, G52S, P53S, Y57D, H59L
VL: B5 VL
For the molecule B6, the equilibrium dissociation constant (Kd) in test [13] came to 1.3 nM; in test [12], 4.2 nM.

B7: 539B-M0065-E12 (Fab, V domains shown)
VH: B5 VH with D31W, Y50G, G52S, Y57N, H59M
VL: B5 VL
Regarding B7, the values for the Kd in [13] and in test [12] were 1.7 nM and 1.1 nM, respectively.

B8: 539B-M0071-H03 (Fab, V domains shown)
VH: B5 VH with D31P, N33W, Y50G, Y57P, H59F, V64I
VL: B5 VL
As to B8, binding in test [12] was put at a Kd of 1 nM.

B9: 539B-M0069-D10 (Fab, V domains shown)
VH: B5 VH with D31L, N33H, Y50G, Y57W, H59I
VL: B5 VL
B9: the results for the dissociation constant Kd in test [13] and in test [12] were 3.4 nM and 5.7 nM, respectively.

B10: 539B-M131A06-GA-S (antibody, V domains shown)
VH: B5 VH with D31W, N33W, Y50G, G52S, Y57M, H59M, K98R, R101V, A103P, S106A
VL: DIQMTQSPSSLSASVGDRVTITCRASQSIYTYLNWYQQKPGKAPKLLIYAASSLQSGVPSRFSGSGSGTDFTLTISSLQPEDFATYYCQQAGIFGQGTKLEIKR
As for B10, 0.233 nM corresponded to half-maximal inhibition in test [14] (IC50).

B11: 539B-M131A06 (antibody, V domains shown)
VH: B5 VH with D31W, N33W, Y50G, G52S, Y57M, H59M, K98R, R101V, A103P, S106A
VL: B5 VL
As for B11, the Kd turned out to be 0.18 nM in test [12] and 0.0727 nM in test [15]. For the same molecule, in test [14], the half-maximal inhibitory concentration (IC50) stood at 0.321 nM.
